The source of these data is article PMC12554172, “Systematic analysis of the RGS2 degron reveals characteristics of substrate recognition by the F-box protein FBXO44” (The Journal of Biological Chemistry, 2025).

This test addresses T1, FBXO44^FBA (Homo sapiens, UniProt Q9H4M3).
T1 construct: we expressed and purified only this domain for all in vitro studies; 6xHis (N, cleaved yes); MBP (N, cleaved yes); made in house; host or cells: Escherichia coli Rosetta BL21 (λDE3)
T1 sequence (Q9H4M3 71-252 limits assumed): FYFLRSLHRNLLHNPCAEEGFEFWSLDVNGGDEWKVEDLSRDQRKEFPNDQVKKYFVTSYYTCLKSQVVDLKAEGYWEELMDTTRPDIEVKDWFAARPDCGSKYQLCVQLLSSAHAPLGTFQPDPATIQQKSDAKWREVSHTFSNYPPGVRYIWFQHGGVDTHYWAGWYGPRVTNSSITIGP
Briefly: Peptide microarray (PEPperPRINT), FLAG-FBXO44^FBA binding. To be noted: Table S1; RGS2^5–16 single-residue substitution; 2 μg/ml FBXO44^FBA overnight at 4 °C, PBS 0.005% Tween pH 7.4, anti-FLAG DyLight800 fluorescence; three independent experiments with three technical replicates each. From the text: To do so, we utilized a custom peptide microarray (PEPperPRINT GmbH). The design of this array was twofold: (1) substitution at each position with every other natural eukaryotic amino acid; (2) truncation of the peptide from the C terminus. We assessed the binding of FLAG-FBXO44^FBA to the array utilizing fluorescence immunoreactivity corresponding to the amount of FLAG-FBXO44^FBA bound. […] Substitutions at Asp^12 were not only tolerated but also seemed to improve binding in every case (Fig. 3B). This, combined with the fact that substituting any residue in His^11–Met^16 with Arg, and in most cases with Lys, improved FBXO44^FBA binding, indicating the presence of negative charges at the binding interface.
Figure 2 Systematic mutation of the RGS2 degron alters FBXO44^FBA binding. A custom microarray (PEPperPRINT) was designed where each position of the RGS2^5–16 peptide was substituted for each natural amino acid. We also included truncated peptides on the array. This was incubated with purified FBXO44^FBA and probed with α-FLAG. A, a representative scan of a peptide microarray (top) and a truncated peptide (bottom). B, heatmap of mean fluorescence of quantified microarray scans. The scale represents the mean fluorescence in percentage points across all replicates, normalized to the signal obtained with the original residue at each position. C, heatmap of standard deviation of quantified microarray scans. The scale represents the standard deviation in percentage points across all replicates. […] Residues are color-coded based on properties: blue, positive charge; red, negative charge; orange, uncharged polar; green, hydrophobic; yellow, Cys (C); bright green, Pro (P); and black, Gly (G). […] Results of three independent experiments with three technical replicates each. For a statistical significance summary, see Table S1. FBXO44, F-box only protein 44; RGS2, regulator of G protein signaling 2.
Figure 3 Effects of RGS2^5–16 peptide residue changes on FBXO44^FBA binding. Data are presented as % FLAG immunoreactivity, as compared with the parent peptide residue. […] The original residue is marked in each graph with a vertical dotted line. Boxes extend from the 25th to 75th percentile with a line marking the median. Whiskers extend to the minimum and maximum. Results of three independent experiments with three technical replicates each. Data were analyzed by two-way ANOVA, with Tukey's post hoc test for pairwise comparison (simple effect within columns). Statistical significance is summarized in Table S1 and color-coded according to the legend. FBXO44, F-box only protein 44; RGS2, regulator of G protein signaling 2.
The microarray slide was seated into the incubation tray according to PEPperPRINT's instructions. The array well was then incubated in washing buffer (PBS) with 0.005% Tween (Sigma; P1379, pH 7.4) at room temperature for 15 min on an orbital shaker. Washing buffer was aspirated, and the array was then incubated with Rockland blocking buffer at room temperature for 30 min on an orbital shaker. Blocking buffer was then aspirated, and the array was incubated in staining buffer (washing buffer with 10% Rockland blocking buffer) at room temperature for 15 min on an orbital shaker. Staining buffer was aspirated, and purified FBXO44 FBA domain diluted to 2 μg/ml in staining buffer was added. The array was then placed on an orbital shaker overnight at 4 °C. The FBA domain solution was removed, and an array was washed three times with washing buffer. After the third array was incubated in staining buffer for 15 min at 4 °C on an orbital shaker. The array was then incubated with antibody dilution (anti-FLAG DyLight800 and anti-HA DyLight680, both diluted 1:2000 in staining buffer) for 45 min at 4° C on an orbital shaker. The array was then washed three times with washing buffer. […]
Take “A8R: array RGS2^5–16 peptide, A8 substituted by R (MFLRVQHDCRPM; UniProt P41220 5-16, looked up, variant A8R)”: the “Mean % difference from parent peptide (FLAG immunoreactivity)” value (from here on “Mean % difference from parent peptide”) turned out to be 27.84%. On to “C13A: array RGS2^5–16 peptide, C13 substituted by A (MFLAVQHDARPM; UniProt P41220 5-16, looked up, variant C13A)”, for which the “Mean % difference from parent peptide” value is -72.59%. For “C13D: array RGS2^5–16 peptide, C13 substituted by D (MFLAVQHDDRPM; UniProt P41220 5-16, looked up, variant C13D)”, the “Mean % difference from parent peptide” value is reported as -75.39%. With “C13E: array RGS2^5–16 peptide, C13 substituted by E (MFLAVQHDERPM; UniProt P41220 5-16, looked up, variant C13E)” the figure was -87.12%. In the case of “C13F: array RGS2^5–16 peptide, C13 substituted by F (MFLAVQHDFRPM; UniProt P41220 5-16, looked up, variant C13F)”, the “Mean % difference from parent peptide” value is recorded as -82.91%. Take “C13G: array RGS2^5–16 peptide, C13 substituted by G (MFLAVQHDGRPM; UniProt P41220 5-16, looked up, variant C13G)”: the “Mean % difference from parent peptide” value is -89.67%.

For the substance “C13H: array RGS2^5–16 peptide, C13 substituted by H (MFLAVQHDHRPM; UniProt P41220 5-16, looked up, variant C13H)”, the “Mean % difference from parent peptide” value is listed as -83.62%. With “C13I: array RGS2^5–16 peptide, C13 substituted by I (MFLAVQHDIRPM; UniProt P41220 5-16, looked up, variant C13I)” the figure was -87.24%. With “C13K: array RGS2^5–16 peptide, C13 substituted by K (MFLAVQHDKRPM; UniProt P41220 5-16, looked up, variant C13K)”, the “Mean % difference from parent peptide” value is recorded as -53.92%. Take “C13L: array RGS2^5–16 peptide, C13 substituted by L (MFLAVQHDLRPM; UniProt P41220 5-16, looked up, variant C13L)”: the “Mean % difference from parent peptide” value is listed as -88.83%. Regarding “C13M: array RGS2^5–16 peptide, C13 substituted by M (MFLAVQHDMRPM; UniProt P41220 5-16, looked up, variant C13M)”, the “Mean % difference from parent peptide” value is listed as -88.01%. The value for “C13N: array RGS2^5–16 peptide, C13 substituted by N (MFLAVQHDNRPM; UniProt P41220 5-16, looked up, variant C13N)” was -85.38%; that for “C13P: array RGS2^5–16 peptide, C13 substituted by P (MFLAVQHDPRPM; UniProt P41220 5-16, looked up, variant C13P)” was -84.68%.

As for “C13Q: array RGS2^5–16 peptide, C13 substituted by Q (MFLAVQHDQRPM; UniProt P41220 5-16, looked up, variant C13Q)”, the “Mean % difference from parent peptide” value is -77.02%. In the case of “C13R: array RGS2^5–16 peptide, C13 substituted by R (MFLAVQHDRRPM; UniProt P41220 5-16, looked up, variant C13R)”, the “Mean % difference from parent peptide” value came to 35.61%. As to “C13S: array RGS2^5–16 peptide, C13 substituted by S (MFLAVQHDSRPM; UniProt P41220 5-16, looked up, variant C13S)”, the “Mean % difference from parent peptide” value was -87.05%. Regarding “C13T: array RGS2^5–16 peptide, C13 substituted by T”, the “Mean % difference from parent peptide” value is -86.63%.

As for “C13V: array RGS2^5–16 peptide, C13 substituted by V (MFLAVQHDVRPM; UniProt P41220 5-16, looked up, variant C13V)”, the “Mean % difference from parent peptide” value was -88.12%. On to “C13W: array RGS2^5–16 peptide, C13 substituted by W (MFLAVQHDWRPM; UniProt P41220 5-16, looked up, variant C13W)”, for which the “Mean % difference from parent peptide” value is -46.69%. Consider “C13Y: array RGS2^5–16 peptide, C13 substituted by Y (MFLAVQHDYRPM; UniProt P41220 5-16, looked up, variant C13Y)”, for which the “Mean % difference from parent peptide” value is listed as -42.98%. With “D12C: array RGS2^5–16 peptide, D12 substituted by C” the figure was 43.97%. “D12F: array RGS2^5–16 peptide, D12 substituted by F (MFLAVQHFCRPM; UniProt P41220 5-16, looked up, variant D12F)”: the “Mean % difference from parent peptide” value was found to be 34.22%. Turning to “D12G: array RGS2^5–16 peptide, D12 substituted by G (MFLAVQHGCRPM; UniProt P41220 5-16, looked up, variant D12G)”, the “Mean % difference from parent peptide” value was found to be 28.74%. The value for “D12H: array RGS2^5–16 peptide, D12 substituted by H (MFLAVQHHCRPM; UniProt P41220 5-16, looked up, variant D12H)” was 37.64%; that for “D12I: array RGS2^5–16 peptide, D12 substituted by I (MFLAVQHICRPM; UniProt P41220 5-16, looked up, variant D12I)” was 42.93%; that for “D12K: array RGS2^5–16 peptide, D12 substituted by K (MFLAVQHKCRPM; UniProt P41220 5-16, looked up, variant D12K)” was 124.2%. The value for “D12L: array RGS2^5–16 peptide, D12 substituted by L (MFLAVQHLCRPM; UniProt P41220 5-16, looked up, variant D12L)” was 31.38%; that for “D12M: array RGS2^5–16 peptide, D12 substituted by M (MFLAVQHMCRPM; UniProt P41220 5-16, looked up, variant D12M)” was 42.32%; that for “D12N: array RGS2^5–16 peptide, D12 substituted by N (MFLAVQHNCRPM; UniProt P41220 5-16, looked up, variant D12N)” was 55.82%. The value for “D12P: array RGS2^5–16 peptide, D12 substituted by P (MFLAVQHPCRPM; UniProt P41220 5-16, looked up, variant D12P)” was 66.54%.

As for “D12Q: array RGS2^5–16 peptide, D12 substituted by Q (MFLAVQHQCRPM; UniProt P41220 5-16, looked up, variant D12Q)”, the “Mean % difference from parent peptide” value came to 59.62%. The value for “D12S: array RGS2^5–16 peptide, D12 substituted by S (MFLAVQHSCRPM; UniProt P41220 5-16, looked up, variant D12S)” was 59.59%.
